Reference: US20110262525A1, “METHODS OF TREATMENT” (SCHERING CORPORATION, priority 2006, published 2011)
Marks after values point to notes of the source that are not given here.

Columns and labels:
[1] = system: D456 xenograft (Glioblastoma); assay: PPTP in vivo xenograft D456
Experimental: (§1) The PPTP includes a molecularly characterized in vitro panel of cell lines (n=27) and in vivo panel of xenografts (n=61) representing most of the common types of childhood solid tumors and childhood ALL (acute lymphoblastic leukemia). LCF/HCA anti-IGF1R antibody was tested against the PPTP in vitro panel at concentrations ranging from 0.01 nM to 100 nM; and was tested against the PPTP in vivo panel at a dose of 0.5 mg per mouse administered twice weekly for four weeks via intraperitoneal injection. Three measures of antitumor activity were used: 1) response criteria modeled after the clinical setting; 2) treated-to-control (T/C) tumor volume at day 21; and 3) a time to event (4-fold increase in tumor volume) measure based on the median EFS of treated and control lines (intermediate activity required EFS (event-free survival) T/C>2, and high activity additionally required a net reduction in median tumor volume at the end of the experiment).
(§2) Stage 1 testing involved testing an agent across the entire PPTP panel of childhood cancer xenograft lines at its maximum tolerated dose (MTD) or at a dose selected based on PK/PD (pharmacokinetic/pharmacodynamic) studies using adult preclinical models.
(§3) In vivo solid tumor testing: For each xenograft line, 10 mice bearing subcutaneous (SC) tumors initiated treatment when the tumors were between 0.2-0.5 cm^3 in volume. Two perpendicular tumor diameters were measured at once weekly intervals with digital vernier calipers. Assuming tumors to be spherical, volumes were calculated from the formula (π/6)×d3, where d represented the mean diameter.
(§4) Drug: LCF/HCA was dissolved in 20mM sodium acetate pH 5 buffer containing 150 mM sodium chloride, and administered intraperitoneally twice weekly for 4 consecutive weeks at a dose of 0.5 mg per animal. […]
(§5) Median Group Response: Each individual mouse in each treatment group was assigned a response score (see Tables above) and a median score for the treatment group was calculated and then each treatment group was assigned an overall response according to the table below. […]

[2] = system: Rh28 xenograft (ALV Rhabdomyosarcoma); assay: PPTP in vivo xenograft Rh28; set-up: key to EFS activity notation (high, intermediate, indeterminate): high (!); intermediate (#); indeterminate (^)
Experimental: as §1, §2, §3
(§6) Drug: LCF/HCA was dissolved in 20mM sodium acetate pH 5 buffer containing 150 mM sodium chloride, and administered intraperitoneally twice weekly for 4 consecutive weeks at a dose of 0.5 mg per animal. The antibody was provided to each testing site in coded vials for blinded testing according the PPTP's standard operating procedures.
(§7) Median Group Response: Each individual mouse in each treatment group was assigned a response score (see Tables above) and a median score for the treatment group was calculated and then each treatment group was assigned an overall response according to the table below.
(§8) Statistical Methods: Event-free survival (EFS) distributions of each treatment group were compared to the EFS distribution of the respective control group using the exact log rank test. P-values were 2-sided & were not adjusted for multiple comparisons given the exploratory nature of this study. P-values<0.05 were considered to be significant.

[3] = system: OS-9 xenograft (Osteosarcoma); assay: PPTP in vivo xenograft OS-9; set-up: key to EFS activity notation (high, intermediate, indeterminate): high (!); intermediate (#); indeterminate (^); details: OS-9 (Osteosarcoma) xenograft, 0.5 mg per mouse ip twice weekly for four weeks
Experimental: as §1, §2, §3, §6, §7, §8

[4] = system: ALL-2 xenograft (ALL B-precursor); assay: PPTP in vivo leukemia xenograft ALL-2; details: ALL-2 (ALL B-precursor) xenograft; 0.5 mg per mouse ip twice weekly for four weeks
Experimental: (§9) The PPTP includes a molecularly characterized in vitro panel of cell lines (n=27) and in vivo panel of xenografts (n=61) representing most of the common types of childhood solid tumors and childhood ALL (acute lymphoblastic leukemia). LCF/HCA anti-IGF1R antibody was tested against the PPTP in vitro panel at concentrations ranging from 0.01 nM to 100 nM; and was tested against the PPTP in vivo panel at a dose of 0.5 mg per mouse administered twice weekly for four weeks via intraperitoneal injection. […]
(§10) In vivo acute lymphoblastic leukemia testing: For each xenograft line, 8 mice were inoculated with 3-5×10^6 mononuclear cells purified from the spleens of secondary recipient mice. Engraftment was monitored weekly by flow cytometry, and treatment was initiated when the proportion of human CD45+ cells in the peripheral blood reached 1%. The proportion of human CD45+ cells in the peripheral blood was monitored weekly throughout the course of treatment. […]
as §5

[5] = system: ALL-7 xenograft (ALL B-precursor); assay: PPTP in vivo leukemia xenograft ALL-7; details: ALL-7 (ALL B-precursor) xenograft; 0.5 mg per mouse ip twice weekly for four weeks
Experimental: as §9, §10, §5

TC-71 xenograft (Ewings) = assay: PPTP in vivo xenograft TC-71; details: TC-71 (Ewings) xenograft, 0.5 mg per mouse ip twice weekly for four weeks
Experimental: as §1, §2, §3, §4, §5

[6] = system: BT-39 xenograft (Glioblastoma); assay: PPTP in vivo xenograft BT-39; details: BT-39 (Glioblastoma) xenograft, 0.5 mg per mouse ip twice weekly for four weeks
Experimental: as §1, §2, §3, §4, §5

[7] = system: OS-17 xenograft (Osteosarcoma); assay: PPTP in vivo xenograft OS-17; details: OS-17 (Osteosarcoma) xenograft, 0.5 mg per mouse ip twice weekly for four weeks
Experimental: as §1, §2, §3, §6, §7, §8

[8] = system: BT-29 xenograft (Rhabdoid); assay: PPTP in vivo xenograft BT-29; details: BT-29 (Rhabdoid) xenograft, 0.5 mg per mouse ip twice weekly for four weeks
Experimental: as §1, §2, §3, §4, §5

[9] = system: OS-33 xenograft (Osteosarcoma); assay: PPTP in vivo xenograft OS-33; details: OS-33 (Osteosarcoma) xenograft, 0.5 mg per mouse ip twice weekly for four weeks
Excerpt: The PPTP includes a molecularly characterized in vitro panel of cell lines (n=27) and in vivo panel of xenografts (n=61) representing most of the common types of childhood solid tumors and childhood ALL (acute lymphoblastic leukemia).
as §2, §3
The antibody was provided to each testing site in coded vials for blinded testing according the PPTP's standard operating procedures.
as §7, §8

[10] = system: OS-2 xenograft (Osteosarcoma); assay: PPTP in vivo xenograft OS-2; set-up: key to EFS activity notation (high, intermediate, indeterminate): high (!); intermediate (#); indeterminate (^); details: OS-2 (Osteosarcoma) xenograft, 0.5 mg per mouse ip twice weekly for four weeks
Experimental: as §1, §2, §3, §6, §7, §8

[11] = system: Rh30R xenograft (ALV Rhabdomyosarcoma); assay: PPTP in vivo xenograft Rh30R
Experimental: as §1, §2, §3, §6, §7, §8

[12] = 0.5 mg per mouse ip twice weekly for four weeks
[13] = day 21, 0.5 mg per mouse ip twice weekly for four weeks

B1: LCF/HCA: fully human anti-IGF1R antibody comprising the mature 19D12/15H12 light chain F (LCF) and mature heavy chain A (HCA) (antibody, V domains shown)
VH: EVQLVQSGGGLVHPGGSLRLSCAASGFTFSSFAMHWVRQAPGKGLEWISVIDTRGATYYADSVKGRFTISRDNAKNSLYLQMNSLRAEDMAVYYCARLGNFYYGMDVWGQGTTVTVSS
VL: EIVLTQVPDFQSVTPKEKVTITCRASQSIGSSLHWYQQKPDQSPKLLIKYASQSLSGVPSRFSGSGSGTDFTLTINSLEAEDAAAYYCHQSSRLPHTFGGGTKVEIKRT
- EFS T/C [1, 12]: 1.1
- Median Final RTV [1, 12]: >4
- Tumor Volume T/C [1, 13]: 0.77
- EFS T/C [2, 12]: > 2.6
- EFS activity notation (high, intermediate, indeterminate) [2, 12]: #
- Median Final RTV [2, 12]: 2.9#
- Overall Group Response [2, 12]: PD2 (1 < MS ≦ 3)
- Tumor Volume T/C [2, 13]: 0.36
- EFS T/C [3]: > 1.2
- EFS activity notation (high, intermediate, indeterminate) [3]: ^
- Median Final RTV [3]: 0.4^
- Tumor Volume T/C ([3]; day 21): 0.31
- EFS T/C [4]: 0.7
- Median Final RTV [4]: >25
- EFS T/C [5]: 1
- Median Final RTV [5]: >25
- EFS T/C (TC-71 xenograft (Ewings)): 1.2
- Median Final RTV (TC-71 xenograft (Ewings)): >4
- Tumor Volume T/C (TC-71 xenograft (Ewings); day 21): 0.88
- EFS T/C [6]: 1.1
- Median Final RTV [6]: >4
- Tumor Volume T/C ([6]; day 21): 0.87
- EFS T/C [7]: 2
- Median Final RTV [7]: >4
- Overall Group Response [7]: PD2 (1 < MS ≦ 3)
- Tumor Volume T/C ([7]; day 21): 0.55
- EFS T/C [8]: 1.4
- Median Final RTV [8]: >4
- Tumor Volume T/C ([8]; day 21): 0.77
- EFS T/C [9]: 0.9
- Median Final RTV [9]: >4
- Tumor Volume T/C ([9]; day 21): 0.79
- EFS T/C [10]: 2.3
- EFS activity notation (high, intermediate, indeterminate) [10]: #
- Median Final RTV [10]: >4#
- Overall Group Response [10]: PD2 (1 < MS ≦ 3)
- Tumor Volume T/C ([10]; day 21): 0.5
- EFS T/C [11, 12]: 1.8
- Median Final RTV [11, 12]: >4
- Overall Group Response [11, 12]: PD2 (1 < MS ≦ 3)
- Tumor Volume T/C [11, 13]: 0.49
